Assay results from the supplement of paper PMC9112550, “Optimization of the antimicrobial peptide Bac7 by deep mutational scanning” (BMC Biology, 2022).

The sequences below were run on Escherichia coli TOP10 (assay: shrunken log2 fold change of peptide-encoding DNA abundance (4.5 h post-induction vs induction); higher = less antimicrobial activity (less host growth inhibition)). Conditions: time post-induction: 4.5 h; library: site-saturation at positions 5, 18, 19, 20.
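Further: peptides expressed intracellularly from a pBAD plasmid library in pooled LB shake-flask culture, induced with 0.3% L-arabinose, DNA abundance read by NGS, three biological replicates, DESeq2 with apeglm shrinkage.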

Sequence	shrunken log2 fold change
RRIRGRPPRLPRPRPRPYPRPRP	0.162
RRIRDRPPRLPRPRPRPPLKPRP	0.0742
RRIRYRPPRLPRPRPRPCSNPRP	-0.00822
RRIRFRPPRLPRPRPRPFLDPRP	-0.169
RRIRMRPPRLPRPRPRPTEKPRP	1.36
RRIRHRPPRLPRPRPRPTYTPRP	-0.00607
RRIRDRPPRLPRPRPRPPMCPRP	-0.0883
RRIRVRPPRLPRPRPRPHGYPRP	-0.298
RRIRFRPPRLPRPRPRPGGVPRP	0.106
RRIRMRPPRLPRPRPRPEWHPRP	0.161
RRIRQRPPRLPRPRPRPIIMPRP	-0.25
RRIRRRPPRLPRPRPRPPCHPRP	0.761
RRIRMRPPRLPRPRPRPSQVPRP	-0.0436
RRIRPRPPRLPRPRPRPWTMPRP	0.0177
RRIRPRPPRLPRPRPRPELMPRP	-0.109
RRIRRRPPRLPRPRPRPKTKPRP	-0.146
RRIRPRPPRLPRPRPRPFPHPRP	-0.129
RRIRGRPPRLPRPRPRPWLDPRP	0.0661
RRIRSRPPRLPRPRPRPQFNPRP	-0.498
RRIRGRPPRLPRPRPRPVITPRP	-0.09
RRIRCRPPRLPRPRPRPYLCPRP	-0.455
RRIRWRPPRLPRPRPRPMWAPRP	0.385
RRIRARPPRLPRPRPRPYAAPRP	0.375
RRIRERPPRLPRPRPRPQFNPRP	-0.167
RRIRIRPPRLPRPRPRPYQTPRP	-0.0792

Sequence	shrunken log2 fold change
RRIRHRPPRLPRPRPRPIWKPRP	-0.0276
RRIRIRPPRLPRPRPRPIVDPRP	-0.0819
RRIRERPPRLPRPRPRPPCQPRP	0.0382
RRIRNRPPRLPRPRPRPPCQPRP	-0.294
RRIRHRPPRLPRPRPRPKPWPRP	0.528
RRIRERPPRLPRPRPRPVSWPRP	0.368
RRIRRRPPRLPRPRPRPSGNPRP	0.122
RRIRNRPPRLPRPRPRPNPDPRP	-0.322
RRIRNRPPRLPRPRPRPCKRPRP	-0.0122
RRIRLRPPRLPRPRPRPAIEPRP	0.0744
RRIRARPPRLPRPRPRPQIGPRP	3.24
RRIRPRPPRLPRPRPRPWLKPRP	-0.371
RRIRARPPRLPRPRPRPSFDPRP	0.103
RRIRQRPPRLPRPRPRPGQKPRP	-0.00973
RRIRSRPPRLPRPRPRPFLGPRP	-0.186
RRIRRRPPRLPRPRPRPADKPRP	-0.121
RRIRQRPPRLPRPRPRPLVQPRP	-0.361
RRIRTRPPRLPRPRPRPLAPPRP	0.263
RRIRVRPPRLPRPRPRPVQMPRP	-0.0712
RRIRPRPPRLPRPRPRPPNDPRP	0.111
RRIRERPPRLPRPRPRPVCRPRP	-0.0104
RRIRTRPPRLPRPRPRPNRYPRP	-0.19
RRIRLRPPRLPRPRPRPTRSPRP	0.467
RRIRWRPPRLPRPRPRPLPNPRP	0.783
RRIRIRPPRLPRPRPRPDACPRP	0.183

Sequence	shrunken log2 fold change
RRIRSRPPRLPRPRPRPKAAPRP	0.252
RRIRFRPPRLPRPRPRPPRCPRP	0.612
RRIRKRPPRLPRPRPRPNTTPRP	-0.0509
RRIRDRPPRLPRPRPRPAQWPRP	0.395
RRIRWRPPRLPRPRPRPELFPRP	-0.0123
RRIRSRPPRLPRPRPRPHLGPRP	-0.385
RRIRSRPPRLPRPRPRPQTVPRP	-0.26
RRIRRRPPRLPRPRPRPWHIPRP	-0.246
RRIRVRPPRLPRPRPRPWHSPRP	-0.435
RRIRNRPPRLPRPRPRPTRIPRP	-0.183
RRIRSRPPRLPRPRPRPMNCPRP	-0.0191
RRIRPRPPRLPRPRPRPVHWPRP	0.00332
RRIRYRPPRLPRPRPRPWLEPRP	-0.118
RRIRLRPPRLPRPRPRPFVDPRP	0.00121
RRIRKRPPRLPRPRPRPVFEPRP	0.347
RRIRQRPPRLPRPRPRPDEFPRP	-0.0132
RRIRPRPPRLPRPRPRPRNRPRP	0.516
RRIRERPPRLPRPRPRPYRLPRP	-0.102
RRIRLRPPRLPRPRPRPPCQPRP	0.062
RRIRFRPPRLPRPRPRPWLHPRP	0.0608
RRIRVRPPRLPRPRPRPDIPPRP	-0.263
RRIRTRPPRLPRPRPRPHWNPRP	-0.424
RRIRDRPPRLPRPRPRPVYHPRP	-0.0857
RRIRYRPPRLPRPRPRPQSEPRP	-0.37
RRIRTRPPRLPRPRPRPLTFPRP	-0.203

Sequence	shrunken log2 fold change
RRIRIRPPRLPRPRPRPKFGPRP	0.0227
RRIRNRPPRLPRPRPRPQVCPRP	0.0261
RRIRRRPPRLPRPRPRPVSSPRP	0.0647
RRIRDRPPRLPRPRPRPHTYPRP	-0.163
RRIRHRPPRLPRPRPRPRRYPRP	0.0129
RRIRARPPRLPRPRPRPFQPPRP	0.0667
RRIRARPPRLPRPRPRPIYEPRP	-0.352
RRIRLRPPRLPRPRPRPATTPRP	0.467
RRIRIRPPRLPRPRPRPENIPRP	-0.106
RRIRLRPPRLPRPRPRPYGLPRP	-0.0893
RRIRVRPPRLPRPRPRPWREPRP	0.0932
RRIRHRPPRLPRPRPRPGEIPRP	0.761
RRIRYRPPRLPRPRPRPMALPRP	-0.142
RRIRSRPPRLPRPRPRPDWSPRP	0.276
RRIRYRPPRLPRPRPRPSYKPRP	-1.22
RRIRHRPPRLPRPRPRPNCVPRP	-0.0146
RRIRWRPPRLPRPRPRPRNAPRP	0.0837
RRIRLRPPRLPRPRPRPLMMPRP	-0.164
RRIRSRPPRLPRPRPRPGGWPRP	0.705
RRIRYRPPRLPRPRPRPADGPRP	0.143
RRIRCRPPRLPRPRPRPRLLPRP	0.159
RRIRFRPPRLPRPRPRPHQSPRP	-0.114
RRIRHRPPRLPRPRPRPQPFPRP	-0.213
RRIRLRPPRLPRPRPRPQRLPRP	0.239
RRIRNRPPRLPRPRPRPTREPRP	0.15

Sequence	shrunken log2 fold change
RRIRERPPRLPRPRPRPMPIPRP	-0.18
RRIRDRPPRLPRPRPRPEYRPRP	-0.0165
RRIRSRPPRLPRPRPRPLQEPRP	0.144
RRIRMRPPRLPRPRPRPRDFPRP	0.83
RRIRIRPPRLPRPRPRPGWGPRP	0.308
RRIRERPPRLPRPRPRPAWFPRP	0.187
RRIRDRPPRLPRPRPRPYSGPRP	-0.035
RRIRERPPRLPRPRPRPMFSPRP	-0.104
RRIRARPPRLPRPRPRPPQAPRP	1.03
RRIRWRPPRLPRPRPRPEATPRP	1.44
RRIRKRPPRLPRPRPRPCCMPRP	0.103
RRIRFRPPRLPRPRPRPWGIPRP	-0.0116
RRIRLRPPRLPRPRPRPSAMPRP	-0.347
RRIRMRPPRLPRPRPRPGNWPRP	0.561
RRIRLRPPRLPRPRPRPARKPRP	0.0589
RRIRERPPRLPRPRPRPIIRPRP	-0.447
RRIRRRPPRLPRPRPRPATRPRP	0.226
RRIRSRPPRLPRPRPRPRPDPRP	0.218
RRIRNRPPRLPRPRPRPSVQPRP	-0.0954
RRIRCRPPRLPRPRPRPLYNPRP	-1.22
RRIRDRPPRLPRPRPRPLMWPRP	2.47
RRIRDRPPRLPRPRPRPCDAPRP	-0.0239
RRIRTRPPRLPRPRPRPLWFPRP	-0.489
RRIRMRPPRLPRPRPRPYAGPRP	-0.0412
RRIRSRPPRLPRPRPRPYDEPRP	0.0261
